T1: extracellular domain of human CTLA-4 (R&D Systems, 325-CT) (human, UniProt P16410 36-161)
T1 construct: extracellular domain; Bought
T1 sequence (looked up): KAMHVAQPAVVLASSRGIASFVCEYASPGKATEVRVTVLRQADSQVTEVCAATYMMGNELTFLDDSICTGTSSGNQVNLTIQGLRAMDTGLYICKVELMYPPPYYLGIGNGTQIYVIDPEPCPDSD

T2: extracellular domain of human B7-H2 (R&D Systems, 165-B7) (human, UniProt O75144 19-256)
T2 construct: extracellular domain; Bought
T2 sequence (looked up): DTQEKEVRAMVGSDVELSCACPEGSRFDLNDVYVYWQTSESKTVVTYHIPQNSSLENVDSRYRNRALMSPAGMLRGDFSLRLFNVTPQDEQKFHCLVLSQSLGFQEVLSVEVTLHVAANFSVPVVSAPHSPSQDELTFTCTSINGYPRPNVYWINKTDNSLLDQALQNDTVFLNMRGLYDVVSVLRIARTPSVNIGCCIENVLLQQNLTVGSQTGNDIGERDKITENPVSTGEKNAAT

T3: extracellular domain of human PD-L2 (R&D Systems, 1224-PL) (human, UniProt Q9BQ51 20-220)
T3 construct: extracellular domain; Bought
T3 sequence (looked up): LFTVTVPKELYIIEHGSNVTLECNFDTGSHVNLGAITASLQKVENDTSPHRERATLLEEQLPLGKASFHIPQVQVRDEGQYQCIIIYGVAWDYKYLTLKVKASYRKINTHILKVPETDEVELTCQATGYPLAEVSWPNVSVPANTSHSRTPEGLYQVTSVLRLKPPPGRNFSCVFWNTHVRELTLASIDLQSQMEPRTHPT


Experiments:
[1] = molecular target: T1, extracellular domain of human CTLA-4 …; assay: ELISA, biotinylated IgG1-TM on coated ECD
Procedure: (§1) ELISAs were performed to determine the cross-reactivity of the anti-B7-H1 IgG1-TM antibodies for other immune co-modulatory molecules. […] Murine cross reactivity was also investigated by coating the ECD of murine B7-H1 (R&D Systems, 1019-B7). Biotinylated anti-B7-H1 IgG1-TM diluted at 100 nM in PBS containing 3% dried milk powder, were incubated at room temperature for 2 h to allow binding. Bound biotinylated IgGs were detected with europium N1-labelled streptavidin (Perkin Elmer, 1244-360) at 0.2 ug/mL. […] Primary antibodies were incubated at 5 ug/mL in PBS containing 3% dried milk powder for 2 h at room temperature. Detection was carried out by incubating the secondary antibody anti-mouse IgG Peroxidase conjugate (Sigma, A2554) or anti-rat IgG Peroxidase conjugate (Sigma, A5795) diluted 1:5000 in PBS containing 3% dried milk powder for 1 h at room temperature and subsequent addition of TMB (Sigma, T0440). […] Non-specific binding was determined using wells coated with the IgG1 isotype control at 5 ug/mL. Cross reactivities were calculated at a percent of the specific binding to the antigen relative to human B7-H1.

[2] = molecular target: T2, extracellular domain of human B7-H2 …; assay: ELISA, biotinylated IgG1-TM on coated ECD
Procedure: as §1

[3] = molecular target: T3, extracellular domain of human PD-L2 …; assay: ELISA, biotinylated IgG1-TM on coated ECD
Procedure: as §1

[4] = molecular target: T4, human PD-1/Fc protein (R&D Systems, catalog #1086-PD) (human, UniProt Q15116 25-170); assay: ELISA, biotinylated IgG1-TM on coated ECD
T4 construct: extracellular domain; Bought; not shown: Fc portion
Procedure: as §1

[5] = molecular target: T5, extracellular domain of human CD28 (R&D Systems, 342-CD) (human, UniProt P10747 19-152); assay: ELISA, biotinylated IgG1-TM on coated ECD
T5 construct: extracellular domain; Bought
Procedure: as §1

[6] = molecular target: T6, extracellular domain of murine B7-H1 (R&D Systems, 1019-B7) (murine, UniProt Q9EP73 19-239); assay: ELISA, biotinylated IgG1-TM on coated murine B7-H1 ECD
T6 construct: extracellular domain; Bought
Procedure: as §1

[7] = molecular target: T7, recombinant monomeric cynomologus B7-H1 FlagHis10 extracellular domain (cynomologus); assay: SPR (BIAcore T100), IgG captured via protein G, monomeric cynomologus B7-H1 ECD as analyte, 25 °C, 1:1 model
T7 construct: extracellular domain; also called CYNO B7H1
Procedure: The binding affinity and kinetic parameters of anti-B7-H1 antibodies in the IgG1-TM format to monomeric human and cynomologus B7-H1 were determined by surface plasmon resonance using a BIAcore T100 instrument (BIAcore, Uppsala, Sweden). In brief, experiments were performed at 25° C. using HBS-EP buffer (10 mM HEPES, 150 mM NaCl, 3 mM EDTA, 0.05% v/v surfactant P20) as running buffer. IgGs were affinity captured on the surface of a CM5 sensor chip (BIAcore) via protein G, which was amine coupled onto the CM5 surface to achieve the density of ˜500 Response Units (RU), according to the manufacturer's instructions (BIAapplications Handbook, BIAcore). Recombinant monomeric human or cynomologus B7-H1 FlagHis₁₀ extracellular domains (ECDs) were used as analytes. […] All measurements were baseline corrected by subtracting the sensorgram obtained with the control (activated-deactivated) flow cell, as well as double referenced with blank (zero analyte concentration) injections. Data were analyzed using the T-100 BIAevaluation software package and fitted to a simple 1:1 Langmuir binding model with local Rₘₐₓ and bulk refractive index set to 0. Data were calculated from at least two independent experiments. Mass transport effects were limited by keeping the level of affinity-captured IgGs below 250 RU.

T5 sequence (P10747 19-152): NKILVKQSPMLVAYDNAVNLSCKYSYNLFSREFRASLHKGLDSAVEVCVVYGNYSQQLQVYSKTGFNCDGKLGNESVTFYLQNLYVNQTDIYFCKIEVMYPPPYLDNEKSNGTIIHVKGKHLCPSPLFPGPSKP
T4 sequence (Q15116 25-170): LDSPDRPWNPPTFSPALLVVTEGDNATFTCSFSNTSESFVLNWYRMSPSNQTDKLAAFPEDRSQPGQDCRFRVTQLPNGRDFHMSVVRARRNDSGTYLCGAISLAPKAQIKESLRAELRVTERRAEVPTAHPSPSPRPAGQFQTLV
T6 sequence (Q9EP73 19-239): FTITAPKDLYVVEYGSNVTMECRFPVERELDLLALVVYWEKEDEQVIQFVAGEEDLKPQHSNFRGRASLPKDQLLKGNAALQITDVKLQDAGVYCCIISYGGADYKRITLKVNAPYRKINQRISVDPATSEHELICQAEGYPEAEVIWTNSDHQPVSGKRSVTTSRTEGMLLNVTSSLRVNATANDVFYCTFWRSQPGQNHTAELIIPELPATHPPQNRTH

binding result [1] | binding result [2] | binding result [3] | binding result [4] | binding result [5] | binding result [6] | Kd [7] | Binder
no binding (tested: 100 nM) | no binding (tested: 100 nM) | no binding (tested: 100 nM) | no binding (tested: 100 nM) | no binding (tested: 100 nM) | no binding (tested: 100 nM) | – | 2.9D10 in the IgG1-TM format (antibody, V domains shown, Recombinant human IgG1-TM (IgG1 with L234F, L235E, P331S), kappa; also called 2.9D10 IgG1-TM) VH: EVQLVESGGGLVQPGGSLRLSCAASGFTFSSYWMSWVRQAPGKGLEWVANIKQDGGEQYYVDSVKGRFTISRDNAKNSLYLQMNSLRAEDTAVYYCARDWNYGYYDMDVWGQGTTVTVSS VL: EIVLTQSPGTLSLSPGERATLSCRASQSVSSNYLAWFQQKPGQAPRLLIFGTSSRATGIPDRFSGSGSGTDFTLTISRLEPEDFAVYYCQQYGSSIFTFGPGTKVDIK
no binding (tested: 100 nM) | no binding (tested: 100 nM) | no binding (tested: 100 nM) | no binding (tested: 100 nM) | no binding (tested: 100 nM) | no binding (tested: 100 nM) | 0.367 nM | 2.14H9OPT (antibody, V domains shown, Germlined VL; human IgG1-TM (L234F, L235E, P331S), kappa) VH: EVQLVESGGGLVQPGGSLRLSCAASGFTFSRYWMSWVRQAPGKGLEWVANIKQDGSEKYYVDSVKGRFTISRDNAKNSLYLQMNSLRAEDTAVYYCAREGGWFGELAFDYWGQGTLVTVSS VL: EIVLTQSPGTLSLSPGERATLSCRASQRVSSSYLAWYQQKPGQAPRLLIYDASSRATGIPDRFSGSGSGTDFTLTISRLEPEDFAVYYCQQYGSLPWTFGQGTKVEIK

From patent publication US20130034559A1 (AstraZeneca / MedImmune, published 2013)
